The assay concerns the target HIV-1 integrase (HIV-1).

As for “lens-epithelium derived growth factor (LEDGF/p75) (from UniProt O75475 1-530) (natural protein)”, the LEDGF/p75-dependent activation of in vitro integration into PN (polynucleosome) templates, IN-LEDGF/p75 preformed complex against IN alone (radiolabelled donor, average of four templates) was determined as 5 fold.

The values above are taken from publication PMC4468133.
